Test results published in publication PMC6222646, “HIV-1 Integrase-Targeted Short Peptides Derived from a Viral Protein R Sequence” (Molecules : A Journal of Synthetic Chemistry and Natural …, 2018).

Target: HIV-1 integrase (IN) (HIV-1)
Assay: cross-linking

In the case of peptide 15 (Biotin-linker-BIHFRIG), the stoichiometry N is reported as 1.

Target: HIV-1 integrase (IN) (HIV-1)
Assay: not given

“Vpr (69–75) peptide with the amino-terminal Phe (Vpr69) replaced with Glu (from UniProt P12520 69-75)” showed a 3'-P IC50 (in vitro IN 3'-processing assay; data not shown) of over 111 µM.

Substance “Vpr (69–75) peptide with the amino-terminal Phe (Vpr69) replaced with Glu (from UniProt P12520 69-75)” has an ST IC50 (in vitro IN strand transfer assay; data not shown) of over 111 µM.

Target: HIV-1 integrase (IN) (HIV-1)
Assay: not given
Remark: another data set of the same source

peptide 5c (Ac-FIHARIG-amide) and peptide 2b (FIHFRIA-amide) cannot be ordered by 3'-P IC50 (in vitro IN 3'-processing assay): over 333 µM for the first, over 111 µM for the second.

Going from peptide 14a (BIHFRIG) to peptide 9a (FIHFRBG), the 3'-P IC50 (in vitro IN 3'-processing assay) rises from 7.2 µM to 20 µM (2.8-fold).

First: peptide 13a (FBHFRIG)
Second: peptide 8a (AIHFRIG)
The 3'-P IC50 (in vitro IN 3'-processing assay) of the first is 2.3-fold lower: 37 µM for the first, 86.3 µM for the second.

Going from peptide 2c (Ac-FIHFRIA-amide) to peptide 3b (FIHFRAG-amide), the 3'-P IC50 (in vitro IN 3'-processing assay) rises from 74.5 µM to over 111 µM.

First: peptide 15 (Biotin-linker-BIHFRIG)
Second: peptide 7b (FAHFRIG-amide)
The 3'-P IC50 (in vitro IN 3'-processing assay) of the first is lower: 32 µM for the first, over 111 µM for the second.

peptide 4b (FIHFAIG-amide) and peptide 4c (Ac-FIHFAIG-amide) cannot be ordered by 3'-P IC50 (in vitro IN 3'-processing assay): over 111 µM for the first, over 333 µM for the second.

Going from peptide 8c (Ac-AIHFRIG-amide) to peptide 11a (FIHBRIG), the 3'-P IC50 (in vitro IN 3'-processing assay) falls from over 333 µM to 34 µM.

Compared with peptide 3a (FIHFRAG), peptide 7a (FAHFRIG) is higher in 3'-P IC50 (in vitro IN 3'-processing assay): 66.5 µM for the first, over 111 µM for the second.

Going from peptide 10a (FIHFBIG) to peptide 6b (FIAFRIG-amide), the 3'-P IC50 (in vitro IN 3'-processing assay) falls from over 333 µM to 95.4 µM.

Going from peptide 1a (FIHFRIG) to peptide 5a (FIHARIG), the 3'-P IC50 (in vitro IN 3'-processing assay) rises from 17.6 µM to over 111 µM.

peptide 5b (FIHARIG-amide) and peptide 7c (Ac-FAHFRIG-amide) cannot be ordered by 3'-P IC50 (in vitro IN 3'-processing assay): over 111 µM for the first, over 333 µM for the second.

Compared with peptide 6c (Ac-FIAFRIG-amide), peptide 6a (FIAFRIG) is 5.4-fold lower in 3'-P IC50 (in vitro IN 3'-processing assay): 94 µM for the first, 17.4 µM for the second.

peptide 3c (Ac-FIHFRAG-amide) and peptide 8b (AIHFRIG-amide) cannot be ordered by 3'-P IC50 (in vitro IN 3'-processing assay): 208 µM for the first, over 111 µM for the second.

Going from peptide 12a (FIBFRIG) to peptide 2a (FIHFRIA), the 3'-P IC50 (in vitro IN 3'-processing assay) rises from 6.5 µM to over 111 µM.

peptide 4a (FIHFAIG) showed a 3'-P IC50 (in vitro IN 3'-processing assay) of over 111 µM.

Compared with peptide 5c (Ac-FIHARIG-amide), peptide 2b (FIHFRIA-amide) is 1.9-fold lower in ST IC50 (in vitro IN strand transfer assay): 117 µM for the first, 60.6 µM for the second.

First: peptide 14a (BIHFRIG)
Second: peptide 9a (FIHFRBG)
The ST IC50 (in vitro IN strand transfer assay) of the first is 2-fold lower: 2.1 µM for the first, 4.3 µM for the second.

peptide 13a (FBHFRIG) and peptide 8a (AIHFRIG) are within 1.5-fold of each other in ST IC50 (in vitro IN strand transfer assay): 20 µM for the first, 22.7 µM for the second.

Going from peptide 2c (Ac-FIHFRIA-amide) to peptide 3b (FIHFRAG-amide), the ST IC50 (in vitro IN strand transfer assay) rises from 30.4 µM to over 111 µM.

Compared with peptide 15 (Biotin-linker-BIHFRIG), peptide 7b (FAHFRIG-amide) is higher in ST IC50 (in vitro IN strand transfer assay): 2.3 µM for the first, over 111 µM for the second.

Compared with peptide 4b (FIHFAIG-amide), peptide 4c (Ac-FIHFAIG-amide) is lower in ST IC50 (in vitro IN strand transfer assay): over 111 µM for the first, 81 µM for the second.

First: peptide 8c (Ac-AIHFRIG-amide)
Second: peptide 11a (FIHBRIG)
The ST IC50 (in vitro IN strand transfer assay) of the first is 11-fold higher: 46 µM for the first, 4.2 µM for the second.

Going from peptide 3a (FIHFRAG) to peptide 7a (FAHFRIG), the ST IC50 (in vitro IN strand transfer assay) rises from 22.4 µM to 73.5 µM (3.3-fold).

peptide 10a (FIHFBIG) and peptide 6b (FIAFRIG-amide) are within 1.5-fold of each other in ST IC50 (in vitro IN strand transfer assay): 48 µM for the first, 35 µM for the second.

Going from peptide 1a (FIHFRIG) to peptide 5a (FIHARIG), the ST IC50 (in vitro IN strand transfer assay) rises from 1.3 µM to 46.6 µM (36-fold).

peptide 5b (FIHARIG-amide) and peptide 7c (Ac-FAHFRIG-amide) cannot be ordered by ST IC50 (in vitro IN strand transfer assay): over 111 µM for the first, 127 µM for the second.

First: peptide 6c (Ac-FIAFRIG-amide)
Second: peptide 6a (FIAFRIG)
The ST IC50 (in vitro IN strand transfer assay) of the first is 1.9-fold lower: 3.5 µM for the first, 6.7 µM for the second.

Going from peptide 3c (Ac-FIHFRAG-amide) to peptide 8b (AIHFRIG-amide), the ST IC50 (in vitro IN strand transfer assay) rises from 28 µM to over 111 µM.

Compared with peptide 12a (FIBFRIG), peptide 2a (FIHFRIA) is 16-fold higher in ST IC50 (in vitro IN strand transfer assay): 2.2 µM for the first, 34.7 µM for the second.

Substance peptide 4a (FIHFAIG) has an ST IC50 (in vitro IN strand transfer assay) of over 111 µM.
